By Kd is commonly meant the free concentration of one partner at which half of the binding sites on the other are occupied at equilibrium, for simple one-to-one binding.

Numbering of substitutions follows the chain as printed.

The results in this text go back to patent US20250382359A1 (BYOMASS, published 2025).

The labels stand for the following.
T1: GDF15 (ligand used in the GFRAL/RET cell assays) (UniProt Q99988 197-308, limits assumed)
T1 sequence (looked up): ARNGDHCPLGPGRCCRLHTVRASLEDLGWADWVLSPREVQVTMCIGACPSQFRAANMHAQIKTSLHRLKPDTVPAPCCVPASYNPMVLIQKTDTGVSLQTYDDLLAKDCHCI

T2: GDNF (UniProt P39905 78-211)
T2 sequence (looked up): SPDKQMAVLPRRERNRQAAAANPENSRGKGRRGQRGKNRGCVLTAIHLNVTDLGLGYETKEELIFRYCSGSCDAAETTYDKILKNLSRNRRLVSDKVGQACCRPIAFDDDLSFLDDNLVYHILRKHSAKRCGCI

T3: GDF10 (UniProt P55107 369-478)
T3 sequence (looked up): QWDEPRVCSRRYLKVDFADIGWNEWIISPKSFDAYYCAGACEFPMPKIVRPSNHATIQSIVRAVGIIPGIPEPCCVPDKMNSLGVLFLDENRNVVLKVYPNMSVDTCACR

T4: Human Activin A Fc (human, UniProt P08476 311-426)
T4 construct: not shown: Fc part
T4 sequence (looked up): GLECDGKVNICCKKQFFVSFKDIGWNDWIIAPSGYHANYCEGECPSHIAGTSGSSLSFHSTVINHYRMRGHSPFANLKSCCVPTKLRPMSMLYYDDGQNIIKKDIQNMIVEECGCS

T5: Human Activin B (human, UniProt P09529 293-407)
T5 sequence (looked up): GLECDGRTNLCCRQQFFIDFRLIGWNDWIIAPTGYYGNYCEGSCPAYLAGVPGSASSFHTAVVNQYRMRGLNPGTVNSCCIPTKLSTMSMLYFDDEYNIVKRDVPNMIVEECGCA

T6: Human BMP9 (human, UniProt Q9UK05 320-429)
T6 sequence (looked up): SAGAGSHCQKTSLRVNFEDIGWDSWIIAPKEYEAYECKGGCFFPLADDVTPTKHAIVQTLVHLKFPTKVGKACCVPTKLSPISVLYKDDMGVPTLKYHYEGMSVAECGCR

T7: Human BMP10 (human, UniProt O95393 317-424)
T7 sequence (looked up): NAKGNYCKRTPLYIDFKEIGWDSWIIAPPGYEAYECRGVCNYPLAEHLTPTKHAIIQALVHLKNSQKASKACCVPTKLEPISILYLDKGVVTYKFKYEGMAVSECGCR

T8: Human GDF15 Fc (human, UniProt Q99988 195-308, limits assumed, biotinylated (EZ-Link Sulfo-NHS-Biotinylation Kit) in the SPR assay)
T8 construct: also called human GDF15-Fc fusion; biotinylated Human GDF15 Fc; not shown: Fc part
T8 sequence: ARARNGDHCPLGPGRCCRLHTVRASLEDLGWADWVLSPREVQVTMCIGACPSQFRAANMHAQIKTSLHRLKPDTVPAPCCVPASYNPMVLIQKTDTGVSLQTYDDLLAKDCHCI

B1: GDF15 antibody agent Clone H, IgG (antibody, V domains shown)
VH: QVQLVQSGAEVKKPGSSVKVSCKASGGTFSSYYISWVRQAPGQGLEWMGGIAPISGTASYAQKFQGRVTITADESTSTAYMELSSLRSEDTAVYYCARGLAYDGYFDLWGRGTLVTVSS
VL: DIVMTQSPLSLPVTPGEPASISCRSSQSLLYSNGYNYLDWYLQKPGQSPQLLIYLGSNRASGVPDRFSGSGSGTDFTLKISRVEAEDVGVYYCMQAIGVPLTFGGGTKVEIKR
B2: GDF15 antibody agent Clone E, IgG (antibody, V domains shown)
VH: QVQLVQSGAEVKKPGASVKVSCKASGYTFTSYGINWVRQAPGQGLEWMGWITAYSGDTNYAQKLQGRVTMTTDTSTSTAYMELRSLRSDDTAVYYCARGPGQYADVDVWGQGTMVTVSS
VL: DIQMTQSPSSVSASVGDRVTITCRASQGISSWLAWYQQKPGKAPKLLIYAASSLQSGVPSRFSGSGSGTDFTLTISSLQPEDFATYYCQQANSFPITFGGGTKVEIKR
B3: GDF15 antibody agent Clone O, IgG (antibody, V domains shown)
VH: QVQLVQSGAEVKKPGATVKVSCKASGYTFDSLGMSWVRQAPGQGLEWMGYISTYSGDTVYAQKLQGRVTMTTDTSTSTAYMELRSLRSDDTAVYYCARESGQQVSALDPWGQGTLVTVSS
VL: B2 VL with S31R, A91G, N92A, I96L
B4: GDF15 antibody agent Clone J, IgG (antibody, V domains shown)
VH: B2 VH with T52D, D57S
VL: B2 VL
B5: GDF15 antibody agent Clone P, IgG (antibody, V domains shown)
VH: B3 VH with L32Y, M34I, S35H, Y50W, S52T, T53A, Q103T, V104S, D108G
VL: B2 VL with S31R, A91G, N92A, I96L
B6: GDF15 antibody agent Clone T, IgG (antibody, V domains shown)
VH: B2 VH
VL: B2 VL with N92S, S93Q
B7: GDF15 antibody agent Clone S, IgG (antibody, V domains shown)
VH: B2 VH
VL: B2 VL with M4L, S31P

The first assay addresses T1, GDF15 (ligand used in the GFRAL/RET …). As to the kind of experiment: cell-based or functional assay.
For the molecule B1, the “GDF15-GFRAL RET pERK IC50 (pM)” value was 254 pM and the “GDF15-GFRAL-RET Luciferase IC50 (pM)” value is 200 pM.

As for B2, the “GDF15-GFRAL RET pERK IC50 (pM)” value stood at 35 pM and the “GDF15-GFRAL-RET Luciferase IC50 (pM)” value was 190 pM.

On to B3, for which the “GDF15-GFRAL-RET Luciferase IC50 (pM)” value amounted to 150 pM.

Consider B4, for which the “GDF15-GFRAL RET pERK IC50 (pM)” value turned out to be 30.3 pM and the “GDF15-GFRAL-RET Luciferase IC50 (pM)” value was 110 pM.

As to B5, the “GDF15-GFRAL RET pERK IC50 (pM)” value turned out to be 35.6 pM.

The target of another assay is T2, GDNF. As to the kind of experiment: BLI Octet; IgG on sensor. On the technique in general: BLI is a label-free optical method that tracks binding on a fibre tip over time.
As to B1, the binding result is listed as “no binding (tested: 100 nM)”.

For B2, the binding result is on record as “no binding (tested: 100 nM)”.

In the case of B3, the binding result is listed as “no binding (tested: 100 nM)”.

On to B6, for which the binding result is “no binding (tested: 100 nM)”.

As to B7, the binding result is “no binding (tested: 100 nM)”.

The target of a further assay is GDF8 (UniProt O14793 267-375). The assay is described as follows: BLI Octet; IgG on sensor.
For B1, the binding result is recorded as “no binding (tested: 100 nM)”.

As to B2, the binding result is “no binding (tested: 100 nM)”.

For B3, the binding result is listed as “no binding (tested: 100 nM)”.

As for B4, the binding result was “no binding (tested: 100 nM)”.

On to B5, for which the binding result was “no binding (tested: 100 nM)”.

With B6, the binding result is recorded as “no binding (tested: 100 nM)”.

With B7, the binding result was “no binding (tested: 100 nM)”.

In another assay the target is T3, GDF10. As to the kind of experiment: BLI Octet; IgG on sensor.
For B1, the binding result is “no binding (tested: 100 nM)”.

In the case of B2, the binding result is recorded as “no binding (tested: 100 nM)”.

Turning to B4, the binding result was “no binding (tested: 100 nM)”.

For the molecule B5, the binding result was “no binding (tested: 100 nM)”.

On to B6, for which the binding result is “no binding (tested: 100 nM)”.

Take B7: the binding result is listed as “no binding (tested: 100 nM)”.

The target of another assay is T9, GDF11 (UniProt O95390 299-407).
T9 construct: Also used as ligand in the Activin 2B receptor/SMAD reporter assay
T9 sequence (O95390 299-407 limits assumed): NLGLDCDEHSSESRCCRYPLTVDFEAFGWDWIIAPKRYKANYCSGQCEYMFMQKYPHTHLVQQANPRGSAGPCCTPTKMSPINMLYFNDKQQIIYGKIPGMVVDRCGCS
As to the kind of experiment: BLI Octet; IgG on sensor.
On to B1, for which the binding result is recorded as “no binding (tested: 100 nM)”.

As for B2, the binding result is on record as “no binding (tested: 100 nM)”.

For B3, the binding result is “no binding (tested: 100 nM)”.

Turning to B4, the binding result was “no binding (tested: 100 nM)”.

On to B5, for which the binding result is “no binding (tested: 100 nM)”.

B6: the binding result was “no binding (tested: 100 nM)”.

As to B7, the binding result was “no binding (tested: 100 nM)”.

The next assay deals with T4, Human Activin A Fc. The assay is described as follows: BLI Octet; IgG on sensor.
With B1, the binding result is recorded as “no binding (tested: 100 nM)”.

B2: the binding result was “no binding (tested: 100 nM)”.

For B3, the binding result is “no binding (tested: 100 nM)”.

With B4, the binding result is “no binding (tested: 100 nM)”.

As for B5, the binding result is recorded as “no binding (tested: 100 nM)”.

For B6, the binding result is recorded as “no binding (tested: 100 nM)”.

As to B7, the binding result was “no binding (tested: 100 nM)”.

The target in another assay is T5, Human Activin B. The assay is described as follows: BLI Octet; IgG on sensor.
Turning to B1, the binding result was “no binding (tested: 100 nM)”.

B2: the binding result was “no binding (tested: 100 nM)”.

As for B3, the binding result is given as “no binding (tested: 100 nM)”.

As to B4, the binding result is “no binding (tested: 100 nM)”.

On to B5, for which the binding result is recorded as “no binding (tested: 100 nM)”.

B6: the binding result is “no binding (tested: 100 nM)”.

Take B7: the binding result was “no binding (tested: 100 nM)”.

The target of another assay is T6, Human BMP9. The assay is described as follows: BLI Octet; IgG on sensor.
Consider B1, for which the binding result was “no binding (tested: 100 nM)”.

B2: the binding result is “no binding (tested: 100 nM)”.

As for B3, the binding result is given as “no binding (tested: 100 nM)”.

With B4, the binding result is “no binding (tested: 100 nM)”.

For the molecule B5, the binding result is “no binding (tested: 100 nM)”.

For B6, the binding result was “no binding (tested: 100 nM)”.

As to B7, the binding result is reported as “no binding (tested: 100 nM)”.

Another assay addresses T7, Human BMP10. As to the kind of experiment: BLI Octet; IgG on sensor.
Consider B1, for which the binding result is given as “no binding (tested: 100 nM)”.

Take B2: the binding result is given as “no binding (tested: 100 nM)”.

As to B3, the binding result is “no binding (tested: 100 nM)”.

B4: the binding result is on record as “no binding (tested: 100 nM)”.

Take B5: the binding result is reported as “no binding (tested: 100 nM)”.

With B6, the binding result was “no binding (tested: 100 nM)”.

Turning to B7, the binding result is listed as “no binding (tested: 100 nM)”.

In a further assay the target is T8, Human GDF15 Fc. As to the kind of experiment: BLI Octet; IgG on sensor, 100 nM antigen (avid). As for the experimental part:
Briefly, ForteBio affinity measurements were performed by loading IgGs on-line onto AHC sensors. Sensors were equilibrated off-line in assay buffer for 30 min and then monitored on-line for 60 seconds for baseline establishment. Sensors with loaded IgGs were exposed to 100 nM antigen for 3 minutes, and afterwards were transferred to assay buffer for 3 min for off-rate measurement. All kinetics were analyzed using the 1:1 binding model.
B1 returned a dissociation constant (Kd) of 0.235 nM.

The molecule B2 displayed a Kd of 0.278 nM.

The molecule B3 returned a Kd of 0.279 nM.

For the molecule B4, the Kd worked out at 0.276 nM.

B5 had a dissociation constant (Kd) of 0.274 nM.
